Experimental findings from publication PMC4656213, “Structural basis for inhibition of the Tob-CNOT7 interaction by a fragment screening approach” (Protein & Cell, 2015) are described below.

In this test the target is T1, human CNOT7 (human, UniProt Q9UIV1 11-262).
T1 construct: CNOT7 (Caf1), human; A second preparation (N-terminal His6, pET-28b, Rosetta2) was made for the SPR screening; also called Caf1; CAF1; source: E. coli BL21 (DE3), purified following the protocol for wild-type Tob
Description: ITC; CNOT7 at 0.05 mM in the cell, TobN138 (wild type or K63A) at 0.45 mM titrated in; room temperature; 20 mM HEPES pH 7.5, 150 mM NaCl, 5% DMSO; one-site model. As to conditions: both partners purified. Background: In ITC the heat of successive injections is recorded.

Numbering of substitutions follows the chain as printed. Numbers in names are those of the source.

T1 sequence (Q9UIV1 11-262): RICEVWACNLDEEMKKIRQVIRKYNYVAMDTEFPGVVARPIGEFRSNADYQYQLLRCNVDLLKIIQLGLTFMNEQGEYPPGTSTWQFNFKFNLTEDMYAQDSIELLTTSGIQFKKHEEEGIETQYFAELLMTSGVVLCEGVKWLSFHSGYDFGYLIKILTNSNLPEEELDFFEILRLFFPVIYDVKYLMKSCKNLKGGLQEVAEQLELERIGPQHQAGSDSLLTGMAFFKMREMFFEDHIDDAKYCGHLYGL

B1: human Tob residues 1-138 (TobN138), wild type (domain or fragment, UniProt P50616 1-138, looked up)
chain: MQLEIQVALNFIISYLYNKLPRRRVNIFGEELERLLKKKYEGHWYPEKPYKGSGFRCIHIGEKVDPVIEQASKESGLDIDDVRGNLPQDLSVWIDPFEVSYQIGEKGPVKVLYVDDNNENGCELDKEIKNSFNPEAQV
notes: Tob (Tob1), human, residues 1-138, containing the Box A and Box B motifs; Cloned into pGEX-6P-1 via BamHI and XhoI; A second preparation (His6-SUMO, pET-28b, Rosetta2) was made for the SPR screening; also called Tob1; TobN138 WT
Take B1: the “stoichiometry N” value was determined as 0.611 ± 0.00797 sites.

B2: TobN138 K63A mutant (domain or fragment, human, UniProt P50616 1-138, looked up)
chain: B1 chain with K63A
notes: Tob (Tob1), human, residues 1-138, with the point mutation K63A; Made by PCR mutagenesis with the human TobN138 expression plasmid as template; source: E. coli BL21 (DE3), purified following the protocol for wild-type Tob
In the case of B2, the “stoichiometry N” value turned out to be 0.737 ± 0.00585 sites.

The term stoichiometry N denotes a count of units in the complex or per binding partner.
